# Target: human CD19 on cells (CD20+ B cells of human PBMC; Raji lymphoma cells) (human) (UniProt P15391)
# Assay: flow cytometry, dose response on human CD20+ lymphocytes
# Chain of human CD19 on cells (CD20+ B cells of human PBMC; Raji lymphoma cells) (human) (P15391 20-556): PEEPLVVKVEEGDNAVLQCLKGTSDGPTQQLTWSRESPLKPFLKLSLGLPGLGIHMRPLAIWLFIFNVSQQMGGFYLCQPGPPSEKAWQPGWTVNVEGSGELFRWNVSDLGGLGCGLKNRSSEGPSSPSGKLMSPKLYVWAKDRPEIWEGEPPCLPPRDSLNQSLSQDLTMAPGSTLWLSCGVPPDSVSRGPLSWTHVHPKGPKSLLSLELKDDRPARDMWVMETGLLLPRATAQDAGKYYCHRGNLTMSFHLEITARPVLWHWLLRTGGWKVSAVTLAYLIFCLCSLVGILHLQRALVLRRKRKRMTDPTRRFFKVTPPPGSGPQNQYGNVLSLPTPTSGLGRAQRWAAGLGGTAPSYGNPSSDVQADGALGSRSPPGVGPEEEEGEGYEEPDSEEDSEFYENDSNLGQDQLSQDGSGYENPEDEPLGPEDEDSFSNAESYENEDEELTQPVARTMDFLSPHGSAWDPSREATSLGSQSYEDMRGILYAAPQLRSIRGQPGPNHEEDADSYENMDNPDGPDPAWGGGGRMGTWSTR
row,EC50 [µg/mL],Substance
1,0.0544,HIB19 (mouse anti-human CD19 antibody)
2,0.209,SJ25C (mouse anti-human CD19 antibody)
3,0.549,4G7 (mouse anti-human CD19 antibody)

# Source: patent publication US20230086069A1
